The labels stand for the following.
B11: mouse IFN-gamma (ligand, UniProt P01580 23-155, looked up)
chain: HGTVIESLESLNNYFNSSGIDVEEKSLFLDIWRNWQKDGDMKILQSQIISFYLRLFEVLKDNQAISNNISVIESHLITTFFSNSKAKKDAFMSIAKFEVNNPQVQRQAFNELIRVVHQLLPESSLRKRKRSRC
notes: Used biotinylated (biotinamidocaproic acid 3-sulfo N-hydroxysuccinimide ester) in the assays; also called mouse IFN-γ; biotinylated mouse IFN-γ

Assay [1] concerns the target T1, human IFN-gamma (human, UniProt P01579 24-166).
T1 sequence (looked up): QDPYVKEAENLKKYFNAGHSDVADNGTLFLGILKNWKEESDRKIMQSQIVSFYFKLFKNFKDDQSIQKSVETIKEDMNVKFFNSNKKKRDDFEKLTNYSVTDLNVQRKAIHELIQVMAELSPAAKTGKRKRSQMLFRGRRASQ
Put plainly: cell-based or functional assay.

Assay [2] concerns the target T1, human IFN-gamma. Put plainly: competition ELISA: VHH pre-incubated with biotinylated human IFN-γ, coated human IFN-γ receptor. On the procedure:
Mouse or human IFN-γ receptor was coated at a concentration of 1-2 μg/ml overnight at 4° C. Plates were washed 5 times with PBS/0.05% Tween-20. Wells were blocked with 1% caseine overnight at 4° C. VHH was pre-incubated with 20 ng biotinylated human or mouse IFN-γ for 30 minutes at room temperature. The mixture was applied to the wells and incubated for 1 hr at room temperature. Detection was performed using Extravidin-AP and pNPP as substrate. Plates were read at 405 nm after 30 minutes incubation at room temperature. Abcam AB 7812 polyclonal antibody was used as a positive control showing a dosis-dependent inhibition of human IFN-γ/IFN-γ receptor as presented in FIG. 7.
As presented in Table 6, a dose-dependent inhibition assay to determine the IC50 was performed for representative clones of each sequence family.
On the technique in general: In an ELISA, binding on a coated surface is turned into a signal by an enzyme label.

The target in assay [3] is B11. Put plainly: ELISA screening of selected clones on captured biotinylated mouse IFN-γ (Examples 7 and 8). On the procedure:
To examine the clones selected using biotinylated human or mouse IFN-γ, wells were coated with neutravidine at a concentration of 2 μg/ml overnight at 4° C. Plates were washed 5 times with PBS/0.05% Tween-20. Wells were blocked with 1% caseine for 2 hrs at room temperature. Biotinylated mouse or human IFN-γ at a concentrabon of 1 μg/ml was captured overnight at 4° C. Plates were washed 5 times with PBS/0.05% Tween-20. Culture supernatant (⅓ diluted) was applied to the wells. Detection was performed using anti-c-myc antibody, followed by anti-mouse-HRP and ABTS/H₂O₂ as substrate. Plates were read at 405 nm after 30 minutes incubation at room temperature.

In assay [4] the target is T2, mouse IFN-γ receptor (IFN-γ R1/Fc) (mouse, UniProt P15261 26-253, limits assumed).
T2 construct: Bought Fc fusion, coated on plates; not shown: Fc part of the bought fusion; not described
T2 sequence (looked up): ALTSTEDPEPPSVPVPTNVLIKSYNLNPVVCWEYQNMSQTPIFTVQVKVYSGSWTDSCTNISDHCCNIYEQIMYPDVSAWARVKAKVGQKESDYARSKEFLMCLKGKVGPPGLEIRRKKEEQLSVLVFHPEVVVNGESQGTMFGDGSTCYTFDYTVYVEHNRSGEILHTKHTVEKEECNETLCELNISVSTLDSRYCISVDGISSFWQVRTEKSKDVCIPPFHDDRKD
Put plainly: ELISA: biotinylated mouse IFN-γ on coated mouse IFN-γ R1/Fc, Extravidin-AP. How it is done:
96-well microtiter plates were coated with human IFN-γ receptor (IFN-γ R1 (R&D Systems, Cat Nr: 673-IR/CF) or mouse IFN-γ receptor (IFN-γ R1/Fc (R&D Systems, Cat Nr:1026-GR) at 1 μg/ml in PBS overnight at 4° C. Plates were washed 5 times with PBS/0.05% Tween-20. Plates were blocked for 2 hrs at room temperature using PBS+1% Caseine. A dilution serie of biotinylated human or mouse IFN-γ was incubated for 1 hr at room temperature. Plates were washed 5 times with PBS/0.05% Tween-20. Binding was detected using Extravidin-AP and pNPP. Plates were read at 405 nm after 30 minutes incubation at room temperature.

B1: MP3C7SRA (VHH)
VHH: QVQLQESGGGLVQAGDSLRLSCAASGRSFSSYGMGWFRQAPGKEHEFVAGIWRSGVSLYYADSVKGRFTISRDDAKMTVSLQMNSLKPEDTAVYYCAAEATFPTWNRGRFADYDYSGQGTQVTVSS
Usually IC50 stands for the point on the concentration scale where inhibition reaches its midpoint. Higher therefore signals lower potency. Consider B1, for which, in assay [1], the “IC50 (nM), cell-based inhibition assay (FS4 cells treated with IFN-γ pre-incubated with VHH, EMC virus, MTT)” value (shortened to “IC50 (nM), cell-based inhibition assay”) was 7500 nM. The same molecule had an IC50 in assay [2] greater than 200 µg/mL.

B2: MP2F6SR/MP2F6SR (VHH)
chain: QVKLEESGGGLVQAGGSLRLSCAASGRTFNNYNMGWFRQAPGKEREFVAAISWNGGSTYYDDSVKGRFTISRDNANNLVYLQMNSLNFEDTAVYYCACAANPYGIPQYRENRYDFWGQGTQVTVSSEPKTPKPQPAAAQVKLEESGGGLVQAGGSLRLSCAASGRTFNNYNMGWFRQAPGKEREFVAAISWNGGSTYYDDSVKGRFTISRDNANNLVYLQMNSLNFEDTAVYYCACAANPYGIPQYRENRYDFWGQGTQVTVSS
Molecule B2 displayed an IC50 (nM), cell-based inhibition assay (FS4 cells treated with IFN-γ pre-incubated with VHH, EMC virus, MTT) in assay [1] of 0.15 nM.

B3: MP6 D6 BR (VHH)
VHH: QVQLQESGGGLVQAGGSLRLSCAVSGSIFSLLAMGWFRQAPGKERELVASVSTHSNTNYADSVKGRFTISRDNAKNTVYLQMNSLKPEDTAVYYCNAGGRYSARVYWGQGTQVTVSS
notes: Llama VHH selected on mouse IFN-γ
B3: the binding result in assay [3] was “binds”.

B4: MP2F1BR (VHH)
VHH: AVQLVESGGGLVQTGDSLRLSCVASGGTFSRYAMGWFRQAPGKEREFVARIGYSGRSISYATSVEGRFAISRDNAKNTVYLQMNSLKPEDTAVYYCASLVSGTLYQADYWGQGTQVTVSS
Turning to B4, the “IC50 (nM), cell-based inhibition assay” value in assay [1] came out at 5000 nM. The molecule further registered an IC50 in assay [2] of 8 µg/mL.

B5: MP6 B12 BR (VHH)
VHH: QVQLQESGGGLVQAGGSLRLSCAASGFTFDDYDIGWFRQAPGKEREEVSCISNIDGSTYYADSVKGRFTISSDNAKNTAYLQMSSLKPEDTAVYYCAADIYVRCVHGLSPGYWGQGIQVTVSS
notes: as for B3
As to B5, in assay [3], the binding result is given as “binds”.

B6: MP3D2BR (VHH)
VHH: QVQLQESGGGLVQPGESLRLSCAASRGIFRFNAGGWYRQAPGKQRELVAFIGVDNTTRYIDSVKGRFTISRDNAKTTVYLQMNSLQPEDTAVYYCNKVPYIDWGQGTQVTVSS
With B6, the “IC50 (nM), cell-based inhibition assay” value in assay [1] was 9000 nM. The IC50 in assay [2] is 4 µg/mL.

B7: MP2F6SR (VHH)
VHH: QVKLEESGGGLVQAGGSLRLSCAASGRTFNNYNMGWFRQAPGKEREFVAAISWNGGSTYYDDSVKGRFTISRDNANNLVYLQMNSLNFEDTAVYYCACAANPYGIPQYRENRYDFWGQGTQVTVSS
For the molecule B7, the “IC50 (nM), cell-based inhibition assay” value in assay [1] came out at 1500 nM. Also, the half-inhibitory concentration (IC50) in assay [2] stood at 1.75 µg/mL.

B8: MP6 C11 BR (VHH)
VHH: QVQLQESGGGLVQAGGSLRLSCAASGRTFSTYAMGWFRQAPGKEREFVAGITSSGGYTYYADSVKGRFTISRDNAKNTVYLQMNSLKPEDTAVYYCAAGFRVGIALDLKGRYDYWGQGTQVTVSS
notes: as for B3
As to B8, in assay [3], the binding result is “binds”.

B9: MP3A7SRA (VHH)
VHH: QVQLQDSGGGLVQAGGSLRLSCAASGRTFSSFRMGWFRRAPGEEREFVAFVRSNGTSTYYADSVEGRFTITRDNAKNTVYLRMDSLKPEDTAVYYCAAATRDYGGSFDYWGQGTQVIVSS
Turning to B9, the “IC50 (nM), cell-based inhibition assay” value in assay [1] was 9000 nM. The IC50 in assay [2] is 5 µg/mL.

B10: MP6 B1 BR (VHH)
VHH: QVQLQESGGGLVQAGGSLRLSCAASGFTSDDYAIGWFRQAPGKEREGVSCISSSDGVTYYADSVKGRFTISSDNAKNTVYLQMNSLKPEDTAVYYCAADSLPLCFSGSYYHPYEYDYLGQGTQVTVSS
notes: as for B3
With B10, the binding result in assay [3] was “binds”.

As to B11, the binding result in assay [4] is on record as “binds”.

B12: MP6 B10 BR (VHH)
VHH: QVQLQDSGGGLVQLGGSLRLSCAISGRILGSYAVGWFRQAPGKERQFVAAIGWSYGNTYYADSVKGRFTISRDNAKNTVYLQINSLKPEDTAVYYCAAGDTYLTGRPNEYAYWGQGTQVTVSS
notes: as for B3
Regarding B12, the binding result in assay [3] is given as “binds”.

B13: MP3B1SRA (VHH)
VHH: QVQLQESGGGLVQPGGSLRLSCAASGFTSSNYAMSWVRQAPGKGLEWVSSINSRTGSITYADSVKGRFTITLDNAKNTLYLQMNSLKPEDTAVYYCASRVDDRVSRGQGTQVTVSS
Take B13: in assay [1], the “IC50 (nM), cell-based inhibition assay” value turned out to be 9000 nM. Besides, the IC50 in assay [2] was found to be 20 µg/mL.

B14: MP4C10SR (VHH)
VHH: QVQLQESGGGLVQPGGSLRLSCAASGFTVSNYAMSWVRQPPGKGIEWVSSINNRNDHITYADSVKGRFTIARDNANNILYLQMNSLKPEDTAVYYCASRVDDRVSRGQGTQVTVSS
On to B14, for which the “IC50 (nM), cell-based inhibition assay” value in assay [1] is 200000 nM. In assay [2], this molecule registered a concentration for half-maximal inhibition (IC50) greater than 200 µg/mL.

B15: MP3C1SR (VHH)
VHH: QVQLQDSGGGLVQAGGSLRLSCAAAGISGSVFSRTPMGWYRQAPGKQRELVAGILSSGATVYAESVKGRFTISRDNAKNTVYLQMNSLSPEDTAEYYCNTYPTWVLSWGQGTQVTVSS
As for B15, the “IC50 (nM), cell-based inhibition assay” value in assay [1] was found to be 9000 nM. In addition, the IC50 in assay [2] was greater than 200 µg/mL.

B16: MP3F1SRA (VHH)
VHH: QVQLQESGGGLVQAGGSLTLSCVASGRTISDYAVGWFRQAPGKEREFVASISWGGGFTAFADSMKGRFTISRDNAKNTVYLQTHTLEPDDTSVYYCASSRRYCTGYRCYATASEFDSWGQGTQVTVSS
Consider B16, for which the “IC50 (nM), cell-based inhibition assay” value in assay [1] was determined as 9000 nM. Moreover, in assay [2], the IC50 came to 8 µg/mL.

B17: MP6 A8 BR (VHH)
VHH: QVQLQESGGGLVQAGGSLRLSCAASGFTFDDYAIGWFRQAPGKELEGVSMINSGGGSTYYADSVKGRFTISSDNAKNTVYLQMNSLKPEDTAVYYCAADQNARLFRLWVVTGTGPVDNALDAWGQGTLVTVSS
notes: as for B3
Regarding B17, the binding result in assay [3] is given as “binds”.

The record behind these values is patent publication US20060034833A1 (published 2006).
